According to US20250205337A1, “COMPOSITIONS AND METHODS FOR ACTIVATING IMMUNE CELLS” (MDX Management LLC, priority 2022, published 2025):
“Also recorded” adds a separate entry of the source.

B1: IFNγ: Interferon gamma, cytokine in Karnelian X1 (protein, UniProt P01579 24-161, looked up)
Interferon gamma: QDPYVKEAENLKKYFNAGHSDVADNGTLFLGILKNWKEESDRKIMQSQIVSFYFKLFKNFKDDQSIQKSVETIKEDMNVKFFNSNKKKRDDFEKLTNYSVTDLNVQRKAIHELIQVMAELSPAAKTGKRKRSQMLFRG
B2: IL-12: IL-12 family cytokine, STAT3 activator (protein, UniProt P29459 23-219; P29460 23-328, looked up)
Interleukin-12 subunit alpha: RNLPVATPDPGMFPCLHHSQNLLRAVSNMLQKARQTLEFYPCTSEEIDHEDITKDKTSTVEACLPLELTKNESCLNSRETSFITNGSCLASRKTSFMMALCLSSIYEDLKMYQVEFKTMNAKLLMDPKRQIFLDQNMLAVIDELMQALNFNSETVPQKSSLEEPDFYKTKIKLCILLHAFRIRAVTIDRVMSYLNAS
Interleukin-12 subunit beta: IWELKKDVYVVELDWYPDAPGEMVVLTCDTPEEDGITWTLDQSSEVLGSGKTLTIQVKEFGDAGQYTCHKGGEVLSHSLLLLHKKEDGIWSTDILKDQKEPKNKTFLRCEAKNYSGRFTCWWLTTISTDLTFSVKSSRGSSDPQGVTCGAATLSAERVRGDNKEYEYSVECQEDSACPAAEESLPIEVMVDAVHKLKYENYTSSFFIRDIIKPDPPKNLQLKPLKNSRQVEVSWEYPDTWSTPHSYFSLTFCVQVQGKSKREKKDRVFTDKTSATVICRKNASISVRAQDRYYSSSWSEWASVPCS
B3: G-CSF: growth factor tested in IL-10-depleted KX1 (protein, UniProt P09919 31-207, looked up)
Granulocyte …: TPLGPASSLPQSFLLKCLEQVRKIQGDGAALQEKLVSECATYKLCHPEELVLLGHSLGIPWAPLSSCPSQALQLAGCLSQLHSGLFLYQGLLQALEGISPELGPTLDTLQLDVADFATTIWQQMEELGMAPALQPTQGAMPAFASAFQRRAGGVLVASHLQSFLEVSYRVLRHLAQP
B4: IL-4: Interleukin 4, cytokine in Karnelian X1 (protein, UniProt P05112 25-153, looked up)
Interleukin-4: HKCDITLQEIIKTLNSLTEQKTLCTELTVTDIFAASKNTTEKETFCRAATVLRQFYSHHEKDTRCLGATAQQFHRHKQLIRFLKRLDRNLWGLAGLNSCPVKEANQSTLENFLERLKTIMREKYSKCSS
B5: IL-22: IL-10 family cytokine, STAT3 activator (protein, UniProt Q9GZX6 34-179, looked up)
Interleukin-22: APISSHCRLDKSNFQQPYITNRTFMLAKEASLADNNTDVRLIGEKLFHGVSMSERCYLMKQVLNFTLEEVLFPQSDRFQPYMQEVVPFLARLSNRLSTCHIEGDDLHIQRNVQKLKDTVKKLGESGEIKAIGELDLLFMSLRNACI
B6: IL-19: IL-10 family cytokine, STAT3 activator (protein, UniProt Q9UHD0 25-177, looked up)
Interleukin-19: LRRCLISTDMHHIEESFQEIKRAIQAKDTFPNVTILSTLETLQIIKPLDVCCVTKNLLAFYVDRVFKDHQEPNPKILRKISSIANSFLYMQKTLRQCQEQRQCHCRQEATNATRVIHDNYDQLEVHAAAIKSLGELDVFLAWINKNHEVMFSA
B7: IL-10: Interleukin 10, cytokine; recombinant form added back; IL-10 family STAT3 activator (protein, UniProt P22301 19-178, looked up)
Interleukin-10: SPGQGTQSENSCTHFPGNLPNMLRDLRDAFSRVKTFFQMKDQLDNLLLKESLLEDFKGYLGCQALSEMIQFYLEEVMPQAENQDPDIKAHVNSLGENLKTLRLRLRRCHRFLPCENKSKAVEQVKNAFNKLQEKGIYKAMSEFDIFINYIEAYMTMKIRN
B8: M-CSF: classical macrophage differentiation factor (protein, UniProt P09603 33-554, looked up)
Macrophage colony-stimulating …: EEVSEYCSHMIGSGHLQSLQRLIDSQMETSCQITFEFVDQEQLKDPVCYLKKAFLLVQDIMEDTMRFRDNTPNAIAIVQLQELSLRLKSCFTKDYEEHDKACVRTFYETPLQLLEKVKNVFNETKNLLDKDWNIFSKNCNNSFAECSSQDVVTKPDCNCLYPKAIPSSDPASVSPHQPLAPSMAPVAGLTWEDSEGTEGSSLLPGEQPLHTVDPGSAKQRPPRSTCQSFEPPETPVVKDSTIGGSPQPRPSVGAFNPGMEDILDSAMGTNWVPEEASGEASEIPVPQGTELSPSRPGGGSMQTEPARPSNFLSASSPLPASAKGQQPADVTGTALPRVGPVRPTGQDWNHTPQKTDHPSALLRDPPEPGSPRISSLRPQGLSNPSTLSAQPQLSRSHSSGSVLPLGELEGRRSTRDRRSPAEPEGGPASEGAARPLPRFNSVPLTDTGHERQSEGSFSPQLQESVFHLLVPSVILVLLAVGGLLFYRWRRRSHQEPQRADSPLEQPEGSPLTQDDRQVELPV

Tests used:
Format in all cases: cell-based, human
[1] = tested on: monocytes from cancer patients (cMo); assay: cMo survival in vitro (STAT3 activators, inhibitors, M-CSF/GM-CSF, KX1); conditions: for cMo responsiveness to differentiation factor: over twenty cMo samples, various solid tumors; for cMo survival (and differentiation) on supplementation: IL-10-depleted KX1 / in place of IL-10
From the text: After two days, the T cell culture medium was used to treat cMo.
IL-10/IL-10R signaling activates the downstream STAT3 signaling pathway.
(§1) The mechanisms by which KX1 could promote cMo survival was further studied.

[2] = tested on: monocytes from cancer patients (cMo); assay: Cytokine depletion assays of Karnelian X1 (cMo survival/adhesion and differentiation); conditions: for role of the cytokine in Karnelian X1 for cMo survival and differentiation: depletion assays
Procedure: The differentiation of cMo from >100 cancer patient samples was tested.
The role of IL-10 and other key factors in KX1 was further studied.

[3] = tested on: monocytes from healthy donors (Mo); assay: Response of monocytes from healthy donors (Mo) to M-CSF and GM-CSF
From the text: Similarly, cMo poorly respond to GM-CSF alone or GM-CSF plus IL-4 that drives DC differentiation (data not shown). […] Parallel experiments testing the same M-CSF and GM-CSF reagents successfully differentiated Mo from healthy donors with >90% survival rates.
(§2) Examination of Akt and Erk1/2, as well as other signaling molecules, detected similar total levels in Mo versus cMo (FIG. 2C), ruling out the absence of protein phosphorylation due to reduction of protein translation.

[4] = tested on: Akt, Erk1/2, STAT3, caspase-9 and caspase-3 in cMo; assay: Survival and apoptosis signal transduction in cMo (Western blotting)
From the text: as §2, §1
The role of IL-10 and other key factors in KX1 was further studied. As shown in FIG. 9A-9D, depletion of IL-10 diminished (>70%) KX1-mediated activation of Akt, Erk 1/2, and STAT3, and this global reduction of survival signal was associated with an increase in cell death signal through activation of caspase-9 and caspase-3.
As shown in FIG. 10A-10C, triple cytokine combination (C-combo V1) was capable of achieving >80% cMo differentiation, although each component alone was not sufficient.

IL-10 = IL-10 production by cMo
From the text: Particularly, high levels of IL-10 and IL-6 were detected in Karnelian X1. Further cytokine depletion assays confirmed the critical role of IL-10, and its depletion largely (60-80%) diminished the capacity of cMo adhesion and survival (FIG. 5B).

[5] = cytokine depleted from Karnelian X1
[6] = in vitro, at optimal concentration
[7] = promoting cMo survival in vitro

Molecule | role of the cytokine in Karnelian X1 for cMo survival and differentiation [2] | cMo survival (and differentiation) on supplementation [1] | Effectiveness (cMo survival rate) [1, 6] | Optimal concentration (ng/mL) [1, 7] | further results
GM-CSF: Granulocyte-macrophage colony-stimulating factor | variable | – | – | – | cMo responsiveness to differentiation factor [1]: non- or poor responsiveness; survival signal transduction in Mo (activation of Akt and Erk1/2) [3]: induced strong survival signal transduction in Mo cells; activation of Akt, Erk1/2, STAT3 in cMo [4]: failed to activate Akt and Erk1/2; caspase-9 and caspase-3 cleavage in cMo [4]: increased caspase-9 and caspase-3 cleavage; also recorded: did induce apoptotic signals via cleavage of caspase-9 and caspase-3
TNFα | – | – | – | – | reduction of cMo adhesion and survival on depletion of the cytokine from Karnelian X1 [2, 5]: ~20%
IL-17: cytokine in Karnelian X1 | dispensable | – | – | – | –
IL-6: Interleukin 6, IL-6 family cytokine | variable | only moderately supported cMo survival and differentiation | 20-30% | – | Optimal concentration [1, 7]: 20 to 100 ng/mL; activation of Akt, Erk1/2, STAT3 in cMo [4]: weaker ability to activate Akt in cMo
B1 | – | – | – | – | reduction of cMo adhesion and survival on depletion of the cytokine from Karnelian X1 [2, 5]: ~20%
B2 | – | could replace IL-10 to support cMo survival and differentiation | 50-70% | >10 ng/mL (10-100) | induction of IL-10 in cMo (IL-10): induction of IL-10
B3 | – | – | – | – | Effectiveness (cMo survival rate) ([1]; in IL-10-depleted KX1): 30-40% in; Optimal concentration (ng/mL) ([1]; in IL-10-depleted KX1): >1 ng/mL (1-200)
B4 | did not affect cMo survival/adhesion | – | – | – | reduction of cMo differentiation to APCs [2, 5]: ~50%
B5 | – | could replace IL-10 to support cMo survival and differentiation | 80-100% | >10 ng/mL (10-100) | –
B6 | – | could replace IL-10 to support cMo survival and differentiation | 70-85% | >10 ng/mL (10-100) | –
B7 | only weakly influence cMo differentiation to APCs | dose-dependently restored its survival capacity | 90-100% | >10 ng/mL (10-100) | remnant cells that survived IL-10 depletion ([2]; IL-10 depleted from Karnelian X1): 5-20%; reduction of cMo adhesion and survival on depletion of the cytokine from Karnelian X1 [2, 5]: 60-80%; diminution of KX1-mediated activation of Akt, Erk 1/2 and STAT3 ([4]; cytokine depleted from KX1): > 70%
B8 | dispensable | – | – | – | cMo responsiveness to differentiation factor [1]: non- or poor responsiveness; survival signal transduction in Mo (activation of Akt and Erk1/2) [3]: induced strong survival signal transduction in Mo cells; activation of Akt, Erk1/2, STAT3 in cMo [4]: failed to activate Akt and Erk1/2; caspase-9 and caspase-3 cleavage in cMo [4]: increased caspase-9 and caspase-3 cleavage; also recorded: did induce apoptotic signals via cleavage of caspase-9 and caspase-3
